Holding throughout (assay): solid phase adherence assay, L. lactis on coated plates, absorbance 590 nm
For one assay, the target named is T1, bovine fibrinogen (bovine, UniProt P02672 20-615; P02676 1-468; P12799 25-444).
T1 construct: The three chains are general knowledge about fibrinogen; also called bovine Fg
T1 sequence 1: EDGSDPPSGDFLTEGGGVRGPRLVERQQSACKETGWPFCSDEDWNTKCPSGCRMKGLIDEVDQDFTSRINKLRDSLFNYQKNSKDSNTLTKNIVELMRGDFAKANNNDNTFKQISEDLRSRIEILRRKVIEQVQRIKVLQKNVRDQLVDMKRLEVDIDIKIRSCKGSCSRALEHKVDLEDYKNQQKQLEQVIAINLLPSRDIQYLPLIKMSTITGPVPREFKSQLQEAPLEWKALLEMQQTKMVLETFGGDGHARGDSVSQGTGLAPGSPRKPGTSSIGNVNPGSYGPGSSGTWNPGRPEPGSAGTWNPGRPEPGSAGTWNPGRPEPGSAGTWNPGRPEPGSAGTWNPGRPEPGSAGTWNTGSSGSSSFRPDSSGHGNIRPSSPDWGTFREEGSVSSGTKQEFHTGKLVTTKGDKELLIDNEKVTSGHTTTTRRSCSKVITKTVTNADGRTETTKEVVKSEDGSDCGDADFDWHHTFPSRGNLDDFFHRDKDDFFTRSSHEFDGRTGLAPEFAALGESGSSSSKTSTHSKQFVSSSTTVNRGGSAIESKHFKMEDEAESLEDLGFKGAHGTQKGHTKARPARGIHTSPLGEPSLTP
T1 sequence 2: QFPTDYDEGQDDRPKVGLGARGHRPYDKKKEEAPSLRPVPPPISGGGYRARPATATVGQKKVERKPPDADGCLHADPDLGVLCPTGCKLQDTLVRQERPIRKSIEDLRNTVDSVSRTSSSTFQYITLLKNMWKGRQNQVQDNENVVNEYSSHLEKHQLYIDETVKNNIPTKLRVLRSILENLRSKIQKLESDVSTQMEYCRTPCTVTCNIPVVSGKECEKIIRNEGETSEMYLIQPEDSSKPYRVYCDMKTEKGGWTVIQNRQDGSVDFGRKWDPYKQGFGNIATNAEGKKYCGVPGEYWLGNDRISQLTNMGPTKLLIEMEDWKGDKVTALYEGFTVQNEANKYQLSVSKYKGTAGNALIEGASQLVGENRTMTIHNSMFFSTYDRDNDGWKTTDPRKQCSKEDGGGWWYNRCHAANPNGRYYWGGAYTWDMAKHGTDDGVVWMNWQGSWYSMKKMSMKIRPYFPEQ
T1 sequence 3: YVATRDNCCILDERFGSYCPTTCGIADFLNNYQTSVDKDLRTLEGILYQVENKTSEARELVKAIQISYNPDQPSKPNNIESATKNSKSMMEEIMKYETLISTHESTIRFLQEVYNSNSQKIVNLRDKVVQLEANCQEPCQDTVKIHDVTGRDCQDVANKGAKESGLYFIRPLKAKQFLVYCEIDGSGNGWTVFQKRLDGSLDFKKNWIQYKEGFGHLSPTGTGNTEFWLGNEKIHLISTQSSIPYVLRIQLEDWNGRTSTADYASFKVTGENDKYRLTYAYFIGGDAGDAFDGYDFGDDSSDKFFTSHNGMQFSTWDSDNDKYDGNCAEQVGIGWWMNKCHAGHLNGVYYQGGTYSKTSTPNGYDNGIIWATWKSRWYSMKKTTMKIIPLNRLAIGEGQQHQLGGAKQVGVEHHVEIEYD

In assay [1] the target is T2, recombinant mouse cytokeratin 10 (mouse, UniProt P02535 454-570).
T2 construct: also called CK10; recombinant CK10
T2 sequence: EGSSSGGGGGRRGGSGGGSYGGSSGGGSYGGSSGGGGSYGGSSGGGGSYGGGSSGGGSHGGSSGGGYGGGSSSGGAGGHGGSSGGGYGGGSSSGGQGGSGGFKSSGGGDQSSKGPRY

Another assay addresses T3, human fibrinogen (human, UniProt P02671 20-629; P02675 31-491; P02679 27-437).
T3 construct: The three chains are general knowledge about fibrinogen; also called human Fg
T3 sequence 1: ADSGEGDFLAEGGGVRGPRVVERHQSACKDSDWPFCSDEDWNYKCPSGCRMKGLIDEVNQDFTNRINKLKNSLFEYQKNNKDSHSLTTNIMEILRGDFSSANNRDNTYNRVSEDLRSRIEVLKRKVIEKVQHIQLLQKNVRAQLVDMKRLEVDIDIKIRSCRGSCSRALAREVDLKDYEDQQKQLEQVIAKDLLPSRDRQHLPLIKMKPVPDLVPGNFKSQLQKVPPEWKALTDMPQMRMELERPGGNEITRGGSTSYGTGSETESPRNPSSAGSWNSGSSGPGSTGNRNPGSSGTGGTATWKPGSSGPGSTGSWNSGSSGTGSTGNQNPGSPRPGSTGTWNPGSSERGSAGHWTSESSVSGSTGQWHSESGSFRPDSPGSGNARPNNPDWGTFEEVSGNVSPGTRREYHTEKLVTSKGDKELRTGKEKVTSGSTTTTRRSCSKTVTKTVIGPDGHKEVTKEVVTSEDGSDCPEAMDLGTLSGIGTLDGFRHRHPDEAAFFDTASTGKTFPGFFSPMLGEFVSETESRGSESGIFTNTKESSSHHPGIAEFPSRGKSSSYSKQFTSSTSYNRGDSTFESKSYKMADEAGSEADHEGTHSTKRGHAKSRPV
T3 sequence 2: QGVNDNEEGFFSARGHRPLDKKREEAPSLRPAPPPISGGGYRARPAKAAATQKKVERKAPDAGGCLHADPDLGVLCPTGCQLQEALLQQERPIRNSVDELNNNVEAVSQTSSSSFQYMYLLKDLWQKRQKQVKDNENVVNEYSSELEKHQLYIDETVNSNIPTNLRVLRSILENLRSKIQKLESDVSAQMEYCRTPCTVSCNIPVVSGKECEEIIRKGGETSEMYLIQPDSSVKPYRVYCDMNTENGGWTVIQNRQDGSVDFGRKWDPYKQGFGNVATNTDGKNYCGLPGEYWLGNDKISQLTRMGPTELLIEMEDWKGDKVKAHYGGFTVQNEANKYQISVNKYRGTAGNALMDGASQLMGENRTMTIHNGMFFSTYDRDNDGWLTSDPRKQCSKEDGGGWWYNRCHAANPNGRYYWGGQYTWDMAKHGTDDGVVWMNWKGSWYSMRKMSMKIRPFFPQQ
T3 sequence 3: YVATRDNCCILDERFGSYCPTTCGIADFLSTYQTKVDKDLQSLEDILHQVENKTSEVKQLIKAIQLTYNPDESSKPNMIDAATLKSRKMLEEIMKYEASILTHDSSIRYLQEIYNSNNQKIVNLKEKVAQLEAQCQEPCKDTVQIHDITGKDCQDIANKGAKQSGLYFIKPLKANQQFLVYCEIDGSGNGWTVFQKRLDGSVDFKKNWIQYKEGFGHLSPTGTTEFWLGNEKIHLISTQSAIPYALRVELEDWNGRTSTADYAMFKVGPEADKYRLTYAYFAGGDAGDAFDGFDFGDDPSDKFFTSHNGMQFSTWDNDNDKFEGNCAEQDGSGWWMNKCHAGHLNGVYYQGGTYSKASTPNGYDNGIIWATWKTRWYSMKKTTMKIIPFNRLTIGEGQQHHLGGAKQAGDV

B1: SpsL of S. pseudintermedius ED99, full-length, expressed on L. lactis MG1363 (pOri23) (other)
chain: NEDVTETTGRNSVTTQASEQHLQVEAVPQEGNNVNVSSVKVPTNTATQAQEDVASVSDVKAHADDALQVQESSHTDGVSSEFKQETAYANPQTAETVKPNSEAVHQSEYEDKQKPVSSSRKEDETMLQQQQVEAKNVVSAEEVSKEENTQVMQSPQDVEQHVGGKDISNEVVVDRSDIKGFNSETTIRPHQGQGGRLNYQLKFPSNVKPGDQFTIKLSDNINTHGVSVERTAPRIMAKNTEGATDVIAEGLVLEDGKTIVYTFKDYVNGKQNLTAELSVSYFVSPEKVLTTGTQTFTTMIGNHSTQSNIDVYYDNSHYVDGRISQVNKKEAKFQQIAYINPNGYLNGRGTIAVNGEVVSGTTKDLMQPTVRVYQYKGQGVPPESITIDPNMWEEISINDTMVRKYDGGYSLNLDTSKNQKYAIYYEGAYDAQADTLLYRTYIQSLNSYYPFSYQKMNGVKFYENSASGSGELKPKPPEQPKPEPEIQADVVDIIEDSHVIDIGWNTAVGEESGANQGPQEEITENHDIEVIEENNLVEMTEDTAVGEESGANQGPQEEITENHDIEVIEENNLVEMTEDTALEEESGANQGPQEEITENHDIEVIEENNLVEMTEDTALEEESGANQGPQEEITENHDIEVIEENNLVEMTEDTAVGEESGANQGPQEEITENHDIEVIEENNLVEMTEDTAVGEESGANQGPQEEITENHDIEVIEENNLVEMTEDTALEEESGANQGPQEEITENHNIEVIEENNLVEMTEDTAVGEESGANPGPQEEVTENQPQQEEIMENQEVEKKGDSNLVESTKTPKAEESVSVQPTLEDKNTKNHVNTVVVNTKVSEVKEKDPHHTKALPDTGTTSRSHSMMIPLLLVAGSVVLLRRKKKHSKVN
notes: also called L. lactis expressing SpsL; putative MSCRAMM SpsL
Take B1: the binding result with bovine fibrinogen was “no binding (tested: 1 µg Fg coated per well)”; in assay [1] it was “no binding (tested: 1 µg CK10 coated per well)”; in the assay with human fibrinogen it was “no binding (tested: 1 µg Fg coated per well)”.

B2: SpsO of S. pseudintermedius ED99, full-length, expressed on L. lactis MG1363 (pOri23) (other)
chain: SVKEGQQSINSSEKESADPTVVDLISKKETNLDGLDVSREETTKVPINENKRGEEQSISDKAITEKADTPVSNLSSKEVEEQGVSDKAITEKADTPVTNLSSKEAKEQGASDRVITEKADTPVSNLSSKEAKEQGASDRVITEKADTPVSNLSSKEVEEQGVSDKAIEKIADASATDLSSKEEVEQDISTQGKVKSKEAVQVESSQLQNLNSEINAEPNEIKAIDRSSILPLNLNDEENNKKVNKGTRVPEATLRNASNNQLNTRMRSVSLFRVARLTEINRNVNDKVKVSDIDIAIAPPHTNPKTGKEEFWATSSSVLKLKASYELDNSISKGDQFTIQFGQNIRPGGLNLPRPYNFLYDKDKKLVATGRYNKESNTITYTFTDYVDKHQNIKGSFEMNAFSRKENATTDKTAYPMDVTIANQKYSENIIVDYGNKKNAAIISSTEYIDLDGSRKMTTYINQNGSKNSIYRADMQIDLNGYKFDPSKNNFKIYEVENSSDFVDSFSPDVSKLRDVTSQFNIQYTNNNTMAKVDFGTNLWRGKKYIIQQVANIDDSKLVKNASINYTLNKMDFNNKRTVETHNNTYSTVKDKSTALGDVQESQSISESQSVSESESLSESQSISESESLSESQSISESESLSESQSISESESLSESQSISESESLSESQSISESESLSESQSISESESLSESQSISESESLSESQSISESESLSESQSISESESLSESQSISESESLSESQSISESESLSESQSISESESLSESQSISESESLSESQSISESESLSESQSISESESLSESQSISESESLSESQSISESESLSESQSISESESLSESQSISESESLSESQSISESESLSESQSISESESLSESQSISESESLSESQSISESESLSESQSISESESLSESQSISESESLSESQSISESESLSESQSISESESLSESQSISESESLSESQSISESESLSESQSVSESESLSESQSISESESLSESQSISESESLSESQSISESESLSESQSISESESLSESQSISESESLSESQSISESESLSESQSISESESLSESQSISESESLSESQSISESESLSESQSISESESLSESQSISESESLSESQSISESESLSESQSISESESLSESQSISESESLSESQSVSESESLSESQSISESESLSESQSISESESLSESQSISESESLSESQSISESESLSESQSISESESLSESQSISESESLSESQSISESESLSESQSVSESESLSESQSISESESLSESQSISESESLSESQSISESESLSESQSISESESLSESQSISESESLSESQSISESESLSESQSISESESLSESQSISESESLSESQSISESESLSESQSISESESLSESQSISESESLSESQSISESESLSESQSISESESLSESQSISESESLSESQSISESESLSESQSISESESLSESQSISESESLSESQSISESESLSESQSISESESLSESQSISERESLSESQSISESESLSESQSISESESLSESQSISESESLSESQSISESESLSESQSISESESLSESQSISESESLSESQSISESESLSESQSISESESLSESQSISESESLSESQSISESESLSESQSVSESESLSESQSISESESLSESQSISESESLSESQSISESESLSESQSISESESLSESQSISESESLSESQSISESESLSESQSISESESLSESQSISESESLSESQSISESESLSESQSISESESLSESQSISESESKSLPNTGTGEKISNYPGILGGLLSILGISLLKRKDREKKLGQKSNK
notes: also called L. lactis expressing SpsO; putative MSCRAMM SpsO
Consider B2, for which the results for the binding result (with bovine fibrinogen; in assay [1]; in the assay with human fibrinogen) were “no binding (tested: 1 µg Fg coated per well)”, “no binding (tested: 1 µg CK10 coated per well)” and “no binding (tested: 1 µg Fg coated per well)”, respectively.

These data come from patent US20180237480A1 (UNIVERSITY OF EDINBURGH, published 2018).
